In the supplement of paper PMC10567573:

B1: BRF1 (parent)
chain: FVESSGGGSSAVGQFVSLDGAGKT
B2: KLHL12 (parent)
chain: SMTTPRCYVGATVLRGRLYAIAGY

Variants of: B1
Assay: protein stability index of a GFP-peptide fusion (GPS, HEK-293T) (PSI 1-6); higher = more stable
Conditions: c terminus: a fixed tail appended
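Also: lentivirally expressed fusions sorted by FACS into six bins by GFP to DsRed ratio, PSI derived from sequencing read proportions per bin multiplied by bin number.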

Protein stability index: each site, then its substitutions
V12: A 2.2 | M 2.52 | I 2.09 | T 1.86 | N 3.08 | R 2.51 | D 3.13 | L 1.95 | C 2.37 | F 2.01 | P 1.86 | G 2.37 | E 2.87 | H 2.25 | Y 1.29 | K 2.88 | S 2.43 | W 3.19
S9: N 2.38 | I 2.39 | W 2.93 | R 1.68 | D 3.03 | G 2.36 | P 1.5 | L 1.77 | K 1.72 | T 2.29 | A 2.2 | V 2.58 | Q 2.22 | C 2.22 | F 1.49 | M 1.99 | Y 2.82 | E 3.38 | H 2.17
F15: D 4.4 | I 2.55 | E 3.35 | N 2.83 | M 2.22 | L 2.27 | K 3.1 | H 3.01 | G 2.68 | A 2.31
V2: R 4.44 | Y 4.16 | S 4.35 | F 4.2 | W 4.01 | A 3.78 | K 4.25 | Q 4.12 | D 5.17 | C 3.96 | I 3.22 | G 4.36 | L 4.72 | E 5.33 | M 4.49 | P 4.97 | H 3.87 | N 4.94 | T 4.76
S4: Y 1.3 | C 3.2 | Q 2.72 | F 2.01 | E 3.28 | G 2.81 | T 2.29 | M 1.08 | N 2.62 | W 2.63 | H 2.57 | A 1.97 | K 2.63 | P 2.67 | R 2.42 | V 2.54 | I 1.86 | D 2.49 | L 1.51
A11: L 1.77 | P 2.42 | R 1.39 | Q 2.61 | V 2.4 | Y 1.64 | I 2.41 | C 1.58 | D 2.68 | N 2 | E 3.28 | H 1.9 | F 2.02 | G 2.28 | T 2.06 | K 1.41 | S 1.95 | M 1.63
G8: I 1.84 | K 2.89 | E 3.31 | N 2.12 | Q 3.27 | A 2.36 | H 1.51 | L 2.06 | C 1.95 | D 2.44 | Y 2.46 | P 2.08 | S 2.06 | R 1.32 | F 1.69 | M 1.71 | V 1.95 | T 2.52
G7: M 2.05 | D 3.52 | R 1.38 | N 2.26 | P 2.34 | S 1.78 | C 2.31 | L 1.52 | K 2.09 | W 2.54 | T 2.38 | Q 2.26 | E 3.02 | A 2.86 | V 1.61 | H 1.68 | F 2.93 | I 1.81
F1: Y 2.75 | H 4.71 | R 5 | D 5.32 | Q 5.13 | V 4.82 | A 4.71 | I 4.34 | P 5.24 | T 5.09 | M 4.99 | L 4.89 | W 3.88 | C 4.65 | S 5.15 | N 5.17 | K 4.59 | E 5.04 | G 5.26
Q14: K 1.72 | R 1.39 | H 1.68 | I 2.53 | N 1.9 | G 2.06 | D 2.73 | C 1.96 | M 3.29 | E 2.89 | P 3.44 | Y 1.75 | L 1.04 | A 1.73 | T 1.86 | S 1.78
G13: T 2.3 | D 3.3 | W 1.49 | C 1.92 | F 4.42 | H 1.84 | K 2.06 | S 2.05 | N 1.81 | Q 1.93 | P 2.18 | L 2.05 | V 2.25 | R 2.41 | I 1.02 | M 1.66 | E 2.96
S10: E 2.31 | M 1.46 | C 1.33 | K 1.42 | D 2.75 | P 2.57 | H 1.99 | I 1.37 | Y 1.64 | L 1.81 | T 2.72 | R 1.98 | G 2.23 | N 2.31 | V 1.96 | Q 2.53
E3: W 3.35 | N 1.75 | T 1.43 | M 2.71 | Q 1.78 | D 1.97 | L 1.17 | C 1.88 | R 3.14 | I 2.62 | V 3.03 | S 1.33 | H 2.01
G6: L 1.97 | V 2.18 | N 1.89 | E 2.94 | R 2.27 | K 2.3 | M 1.76 | Q 2.66 | Y 2.45 | A 2.37 | T 2.53 | I 1.49 | W 2.5 | D 2.96 | F 1.45 | H 1.74 | C 1.97 | P 2.23 | S 2.7
S5: Y 1.53 | T 2.62 | A 2.57 | Q 2.71 | L 1.36 | V 1.75 | G 2.19 | H 1.81 | E 3.68 | M 1.75 | I 2.24 | K 2.58 | C 2.03 | F 3 | R 1.92 | N 2.65 | P 2.01 | D 3.37

Variants of: B2
Assay: as above
Conditions: c terminus: a fixed tail appended

Protein stability index, by site and new letter:
I21: S 1.2 | N 1.81 | C 1.37 | R 1.93 | W 2.43 | T 1.37 | P 2.29 | F 2.81 | H 1.59 | E 1.78 | A 2.65 | K 1.57 | Q 1.67 | M 1.28 | L 2.73 | V 2.33 | G 1.78 | D 1.46
G23: D 1.64 | H 3.9 | M 2.83 | S 2.08 | R 1.97 | A 3.75 | E 2.19 | T 2.54 | P 2.39 | N 1.78 | W 2.54 | Q 3.57 | I 1.86 | K 1.35 | F 2.6 | L 3.25
A22: R 2.86 | P 2.08 | D 2.12 | H 2.68 | E 2.3 | F 2.3 | K 1.52 | C 3.97 | S 1.26 | V 1.94 | T 1.69 | G 1.24 | M 2.01 | I 3.06 | Q 1.52 | N 1.3
A20: M 2.23 | V 3.5 | P 2.26 | N 1.72 | W 3.09 | Y 2.41 | R 1.34 | Q 2.45 | T 1.01
Y24: D 2.03 | P 2.64 | M 3.33 | E 2.33 | K 2.17 | R 1.95 | S 1.27 | W 2.45 | Q 2.45 | F 3.7 | T 1.82 | C 1.82 | I 2.45 | L 2.46 | A 1.48 | N 1.75 | G 2.13 | H 1.43
